# Measured values: patent US20240327503A1
# Molecular target: SARS-CoV-2 spike ECD S-2P (SARS-CoV-2) (UniProt P0DTC2)
substance,measurement,value
CR3022 (antibody),EC50,3.6 nM
